Measured values taken from patent publication US20250276077A1, “EPHA2 ANTIBODIES” (Immunome, Inc., priority 2022, published 2025).
Entries after “also recorded” stand apart in the source; their conditions may differ. Blank lines part the entries; values can stand above or below the molecule they belong to.

Columns and labels:
[1] = system: A549 cells; assay: Flow screen (in vitro) surface binding; design: species or system human; details: flow cytometry; comparisons are to AB-008873
Procedure: Surface binding of the antibodies to in vitro grown cell lines was assessed by flow cytometry. Tumor cells were detached from their culture plate using Versene and counted. Cells were staining in BSA-containing buffer with primary antibody for 30 minutes at 4° C. with shaking. Following, cells were washed and stained with secondary PE-labeled antibody for 30 minutes at 4° C. with shaking. Before analysis on an Intellicyt iQue3 scanner, cells were counterstained with DAPI. MedFI values from live, single cells was expressed as fold over isotype control.

[2] = system: A549 cells; assay: ADCC (KILR target cells, NK92 CD16 chimera effector cells); assay type: cell-based, human; details: for ADCC activity on A549 cells (in words): comparisons are to AB-008873 or parent; for EC50 / ADCC - dAct rel. parent, Trial 1 / ADCC - dAct rel. parent, Trial 2: A549 tumor cells; for ADCC - dAct rel. parent, Trial 1: Trial 1, relative to parent antibody; for ADCC - dAct rel. parent, Trial 2: Trial 2, relative to parent antibody
Procedure: (§1) To detect Antibody-dependent cellular cytotoxicity (ADCC), KILR™-transfected target cells were opsonized with different concentrations of the antibody at room temperature for 20 minutes. Following, NK92 cells carrying a mouse extracellular-human intracellular CD16 chimera were added at a 5:1 ratio of effector to target cells. After a 4 h co-culture at 37° C. and 5% CO2, pre-mixed KILR™ detection reagent was added to each well at equal volume and allowed to incubate for 30 min at room temperature in the dark before reading luminescence on a pate reader. Cytotoxicity was calculated after background (spontaneous release) subtraction and expressed as percent of a maximum lysis control.

[3] = system: A549 cells; assay: ADCP with RAW264.7 mouse macrophage effector cells; assay type: cell-based, human
Procedure: For antibody-dependent cellular phagocytosis (ADCP), the cell membranes of target cells were labeled with green fluorescent membrane dye preceding opsonization with different concentrations of antibody at room temperature for 30 minutes. RAW264.7 mouse macrophage (effector) cells were then added at a 1:1 ratio with the target cells and co-cultured at 37° C. and 5% CO2 for 2 hours. After incubation, the cell mixture was dissociated with 2 mM ethylenediaminetetraacetic acid (EDTA, pH 7.4). The cell suspension was then washed several times in an isotonic salt solution and probed with a commercially available anti-CD11b antibody, conjugated with Allophycocyanin (APC). After a 30-minute incubation at 4° C. with this antibody, the cell suspension was washed again before being analyzed by flow cytometry.

[4] = system: PC3 tumors; assay: In vivo PC3 model in NPG mice, ZLA-conjugated EphA2 antibodies; design: species or system mouse; details: ZLA conjugates in both IgG1 and IgG4 formats; 3 and 6 mg/kg; ~150 mm^3 and ~400 mm^3 PC3 tumors
Procedure: This experiment assessed the activity of ZLA-Conjugated EphA2 antibodies AB-010671-ZLA and AB-010699-ZLA in vivo. 2×10^6 PC3 cells were inoculated in 0.2 mL of 1:1 DPBS with Matrigel subcutaneously into each of the male NPG mice. Tumors were allowed to establish and then randomized at an average size of 150 mm^3 with 10 mice per treatment cohort. Treatment started at the day of randomization (Day 0) with weekly intravenous injections of the conjugates at the indicated doses. Body weight as well as tumor sizes were monitored twice weekly. Study was ended at day 35 after 5 doses. At endpoint, mice were euthanized, and tumors excised and weighted.
The assay was repeated with AB-010699 and AB-010671 in both IgG1 and IgG4 formats at 1, 3, and 6 mg/kg, AB-010016, and vehicle and isotype controls in mice carrying PC3 tumor cells measuring ˜150 mm^3 or ˜400 mm^3. […] FIG. 60B and FIG. 61B show the body weight of the mice over the course of the studies.

[5] = system: SKOV3, MDAMB231, and PC3 tumor cells
Procedure: This experiment tested the cytotoxicity of antibody-drug conjugates (“conjugates”) each comprising an EphA2 antibody directly conjugated via a lysine to a ZymeLink™ Auristatin (ZLA) payload having structure (1) as disclosed above on SKOV3, MDAMB231, and PC3 tumor cells. […] The average drug to antibody ratio (DAR) for each molecule ranges from 2.9 and 3.6 as determined by Mass Spectrometry. […] 2,500 cells were added to each well of a 96 well plate and incubated with different concentrations of directly conjugated primary antibody for 15 min at room temperature. Cells were then incubated for 72 h at 37° C. and 5% CO2. At the end of the incubation period, 100 μl CellTiter-Glo® was added to each well and allowed to incubate for 5-10 min at room temperature before reading luminescence in a BMG ClarioSTAR plate reader. Data were then normalized to a maximum lysis control and plotted using graph pad prism software.

[6] = system: PC3-KILR cells; assay: ADCC (KILR target cells, NK92 CD16 chimera effector cells); assay type: cell-based, human
Procedure: as §1

[7] = molecular target: T1, extracellular domain of human EphA2 (25-534) (Homo sapiens, UniProt P29317); assay: Epitope binning by bio-layer interferometry (Octet, in-tandem); assay type: binding
T1 construct: extracellular domain of human EphA2 (25-534) with a C-terminal HIS tag; purchased R&D Systems 3035-A2
Procedure: Epitope binning was performed using an Octet Red 96E instrument (Sartorius) using the in-tandem format. In this format, antigen is captured on a biosensor tip, a first antibody (or other binding partner) is bound to saturation, and subsequently the ability of a second antibody (or binding partner) known to recognize the antigen is assessed. If substantial binding by the second species is no longer observed, it is supportive that simultaneous binding is sterically hindered (i.e., the second species is “blocked” by pre-saturation of the 1st) and that the two may bind overlapping epitopes. If, however, substantial binding of the second species is observed, despite saturation of the first, it is supportive that the two bind non-overlapping epitopes. Groups of antibodies that block one another can be considered to populate the same epitope bin.
The fourth antibody Fv region (AB-008873) was discovered via Atreca's Immune Repertoire Capture (IRC™). Antibodies were produced with mouse IgG2a constant regions. The natural ligand tested was EphrinA1 fused to Fc (Acro, EF1-H5251). Antigen immobilized on the biosensor was the extracellular domain of human EphA2 (25-534) with a C-terminal HIS tag (R&D Systems, 3035-A2) and captured using Ni-NTA tips (Sartorius, 18-5102). Protein solutions were made in 1× Kinetics buffer (Satorius, 18-1092) supplemented with 2.5 mM Imidazole to reduce non-specific binding. Each pairwise interaction was assessed in both orders of addition, and controls for binding in the absence of antigen or with antigen but without a first binding species included. Binning indicated the five molecules populated only two Bins. The first bin contains molecules AB-008873 and AB-010018 and was interpreted to represent epitopes on the membrane proximal fibronectin domain of EphA2 based on the reported epitope location of DS-8895a (Hasegawa, J. et al., Novel anti-EPHA2 antibody, DS-8895a for cancer treatment. Cancer Biology and Therapy, 17(11), 1158-1167 (2016)). The second bin contains molecules AB-010017. AB-010016, and EphrinA1-Fc and was interpreted to represent epitopes on the ligand binding domain (Peng, L. et al., Structural and functional characterization of an agonistic anti-human EphA2 monoclonal antibody. Journal of Molecular Biology, 413(2), 390-405 (2011); Geddie, M. L. et al., Improving the developability of an anti-EphA2 single-chain variable fragment for nanoparticle targeting. MAbs, 9(1), 58-67 (2017)). FIG. 5, Tables 41-42. Referring to FIG. 5, the FN2 location in the first bin is inferred from domain deletion data reported in Hasegawa et al., 2016, FIG. 1, noting that the reported MMP cleavage sites are (385/395/432/435).

T1 sequence (P29317 25-534): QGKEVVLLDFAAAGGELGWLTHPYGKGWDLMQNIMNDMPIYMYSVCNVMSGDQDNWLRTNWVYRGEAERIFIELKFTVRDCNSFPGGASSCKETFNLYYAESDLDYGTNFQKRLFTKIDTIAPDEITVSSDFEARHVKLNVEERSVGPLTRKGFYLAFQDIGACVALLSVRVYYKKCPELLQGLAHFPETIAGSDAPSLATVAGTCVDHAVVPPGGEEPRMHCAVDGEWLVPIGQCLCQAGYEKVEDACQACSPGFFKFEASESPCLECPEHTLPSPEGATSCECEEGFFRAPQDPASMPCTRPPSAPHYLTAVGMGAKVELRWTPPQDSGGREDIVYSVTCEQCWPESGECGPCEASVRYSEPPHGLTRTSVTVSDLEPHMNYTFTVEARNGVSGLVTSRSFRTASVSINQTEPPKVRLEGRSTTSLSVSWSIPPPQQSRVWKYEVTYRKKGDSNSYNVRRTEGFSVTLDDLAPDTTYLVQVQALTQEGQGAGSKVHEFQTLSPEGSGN

B1: AB-009807: sibling of AB-008873; VH SEQ ID NO: 70, VL SEQ ID NO: 81 (antibody, V domains shown)
VH: QVQLQQWGAGLLKPSETLSLTCAVYGGSFNDYYWSWIRQPPGKGLEWIGEVNHSGSTSYNPSLKSRVTISVDTSKNQFSLKLSSVTAADTAVYYCAKPFRPHCTNGVCYSGDAFDIWGQGTMVTVSS
VL: SYVLTQPPSVSVAPGQTARITCGGNNIGSKNVHWYQQKPGQAPALVVYDDSDRPSGIPEQFSGSNSGNTATLTISRVEAGDEADYYCQVWDSSSDHLVFGGGTKLTVL
binding to A549 cells (in words) [1]: less than that of AB-008873; also recorded: little binding and ADCC activity
ADCC activity on A549 cells (in words) [2]: less than that of AB-008873; also recorded: little binding and ADCC activity
ADCP activity on A549 cells (in words) [3]: less than that of AB-008873; also recorded: some ADCP activity

B2: AB-010671: VH SEQ ID NO: 624, VL SEQ ID NO: 689; H107TI; L29SY; L92SH relative to AB-010357 (antibody, V domains shown)
VH: QVQLQQWGAGLLKPSETLSLTCAVYGGSFSDYYWSWIRQPPGKGLEWIGEINHRGSINYNNYNPSLKSRVTISVDTSKNQFSLKLSSVTAADTAVYYCAKPLRPHCINGVCYSGDAFDIWGQGTMVTVAS
VL: SYVLTQPPSVSVAPGQTARITCGGNNIGYKNVHWYQQKPGQAPVLVVYDDSDRPSGIPEQFSGSNSGNTATLTISRVEAGDEADYYCQVWDHSSDHVVFGGGTKLTVL
EC50 [2]: ~6 pM
ADCC - dAct rel. parent, Trial 1 [2]: 157.1%
ADCC - dAct rel. parent, Trial 2 [2]: 106.7%
anti-tumor activity, repeat study [4]: anti-tumor activity
cytotoxic activity of ZLA conjugates (in words) [5]: higher potency but similar maximum cytotoxicity compared to AB-010361-ZLA and AB-010361-IgG4-ZLA

B3: AB-010685: VH SEQ ID NO: 638, VL SEQ ID NO: 703; H107TI; L29SY; L92SH relative to AB-010361 (antibody, V domains shown)
VH: QVQLQQWGAGLLKPSETLSLTCAVYGGSFSGYYWSWIRQPPGKGLEWIGEINHRGSINYNNYNPSLKSRVTISVDTSKNQFSLKLSSVTAADTAVYYCAKPLRPHCINGVCYSGDAFDIWGQGTMVTVAS
VL: SYVLTQPPSVSVAPGQTARITCGGNNIGYKNVHWYQQKPGQAPVLVVYDDSDRPSGIPEQFSGSNSGNTATLTISRVEAGDEADYYCQVWDHSSDHVVFGGGTKLTVL
EC50 [2]: ~6 pM
ADCC - dAct rel. parent, Trial 1 [2]: 161.1%
ADCC - dAct rel. parent, Trial 2 [2]: 106.4%
ADCC activity on A549 cells (in words) [2]: improved ADCC activity
ADCC potency on PC3-KILR cells (in words) [6]: highly potent
fold improvement in ADCC as compared to AB-010018 ([6]; PC3-KILR cells): 10 fold

Continued, values first:

epitope bin ([7]; first bin: membrane proximal fibronectin domain, second bin: ligand binding domain): second bin
B4: EphrinA1-Fc: natural ligand EphrinA1 fused to Fc (Acro, EF1-H5251) (protein)
chain: DRHTVFWNSSNPKFRNEDYTIHVQLNDYVDIICPHYEDHSVADAAMEQYILYLVEHEEYQLCQPQSKDQVRWQCNRPSAKHGPEKLSEKFQRFTPFTLGKEFKEGHSYYYISKPIHQHEDRCLRLKVTVSGKITHSPQAHDNPQEKRLAADDPEVRVLHSIGHS
modifications: left off: a dimerising Fc or GST

Octet in tandem binning, Notes/Scoring ([7]; label = Analyte 1, Analyte 2 8873-02, NiNTA tip, Ligand R&D ECD-06): Binding observed
Octet in tandem binning (blocked / binds) ([7]; paired with 8873-2 (column; Bin #1 - FN2)): binds
Octet in tandem binning (blocked / binds) ([7]; paired with 10016-01 (Bin #2 - LBD)): blocked
Octet in tandem binning (blocked / binds) ([7]; paired with 10017-01 (Bin #2 - LBD)): blocked
Octet in tandem binning (blocked / binds) ([7]; paired with 10018-01 (column; Bin #1 - FN2)): binds
Octet in tandem binning (blocked / binds) ([7]; paired with Ephrin-A1 (Bin #2 - LBD)): blocked
B5: Ephrin-A1 (protein)
chain: DRHTVFWNSSNPKFRNEDYTIHVQLNDYVDIICPHYEDHSVADAAMEQYILYLVEHEEYQLCQPQSKDQVRWQCNRPSAKHGPEKLSEKFQRFTPFTLGKEFKEGHSYYYISKPIHQHEDRCLRLKVTVSGKITHSPQAHDNPQEKRLAADDPEVRVLHSIGHS
modifications: left off: a dimerising Fc or GST
